Data on one protein can be found in patent US5908761, “Galectin-8 and galectin-8-like proteins and DNA molecules coding therefor” (Yeda Research and Development Co. Ltd., dated 1999).

This series deals with the molecule itself. The experiment in a line: gel filtration over Superdex-200 HR FPLC column (self-association). The procedure:
Approximately 100 μg protein was loaded onto Superdex-200 HR (Pharmacia) FPLC column equilibrated with buffer A (PBS, 4 mM β-mercaptoethanol, 2 mM EDTA), and run for 60 min at 0.5 ml/min. O.D. was measured at 215 nm, and the column profile was obtained by running separately standard marks.
The primary structure of galectin-8 resembles that of galectin-4, namely, two homologous (38% identity) carbohydrate-binding regions (CRDs) linked by a short ≈30-amino acids linking peptide. This unique architecture is shared so far only by two galectins: rat galectin-4 (12) and its *C. elegans* homologue (13). Other galectin types, that contain a single CRD, exist and function as non-covalent dimers, which provides them with the potential to aggregate or agglutinate glycoconjugates. Since galectin-4 exists as a monomer, experiments were carried out to determine whether galectin-8 exists as a monomer or a dimer. […] Hepatic galectin-8 (FIG. 6) has a similar mobility on SDS-PAGE as its recombinant counterpart (FIG. 5).
In general terms: In gel filtration, larger molecules generally elute earlier.

B1: tag-free recombinant galectin-8 (other)
chain: MLSLSNLQNIIYNPTIPYVSTITEQLKPGSLIVIRGHVPKDSERFQVDFQHGNSLKPRADVAFHFNPRFKRSNCIVCNTLTNEKWGWEEITHDMPFRKEKSFEIVIMVLKNKFHVAVNGKHILLYAHRINPEKIDTLGIFGKVNIHSIGFRFSSDLQSMETSTLGLTQISKENIQKSGKLHLSLPFEARLNASMGPGRTVVVKGEVNTNATSFNVDLVAGRSRDIALHLNPRLNVKAFVRNSFLQDAWGEEERNITCFPFSSGMYFEMIIYCDVREFKVAVNGVHSLEYKHRFKDLSSIDTLAVDGDIRLLDVRSW
Turning to B1, the binding result was “no binding”.
